Test results reported in US20020045591A1 (published 2002).
Numbering of substitutions follows the chain as printed. Each block holds one binder with its values, some of them ahead of it.

Experiments:
HA-tagged LEF-1 = test: cell-based or functional assay
[1] = target: T1, Endogenous β-catenin of SW480 human colon carcinoma cells (human, UniProt P35222 2-781); test: double immunofluorescence, transfected SW480 cells
T1 construct: whole, on cells
T1 sequence (looked up): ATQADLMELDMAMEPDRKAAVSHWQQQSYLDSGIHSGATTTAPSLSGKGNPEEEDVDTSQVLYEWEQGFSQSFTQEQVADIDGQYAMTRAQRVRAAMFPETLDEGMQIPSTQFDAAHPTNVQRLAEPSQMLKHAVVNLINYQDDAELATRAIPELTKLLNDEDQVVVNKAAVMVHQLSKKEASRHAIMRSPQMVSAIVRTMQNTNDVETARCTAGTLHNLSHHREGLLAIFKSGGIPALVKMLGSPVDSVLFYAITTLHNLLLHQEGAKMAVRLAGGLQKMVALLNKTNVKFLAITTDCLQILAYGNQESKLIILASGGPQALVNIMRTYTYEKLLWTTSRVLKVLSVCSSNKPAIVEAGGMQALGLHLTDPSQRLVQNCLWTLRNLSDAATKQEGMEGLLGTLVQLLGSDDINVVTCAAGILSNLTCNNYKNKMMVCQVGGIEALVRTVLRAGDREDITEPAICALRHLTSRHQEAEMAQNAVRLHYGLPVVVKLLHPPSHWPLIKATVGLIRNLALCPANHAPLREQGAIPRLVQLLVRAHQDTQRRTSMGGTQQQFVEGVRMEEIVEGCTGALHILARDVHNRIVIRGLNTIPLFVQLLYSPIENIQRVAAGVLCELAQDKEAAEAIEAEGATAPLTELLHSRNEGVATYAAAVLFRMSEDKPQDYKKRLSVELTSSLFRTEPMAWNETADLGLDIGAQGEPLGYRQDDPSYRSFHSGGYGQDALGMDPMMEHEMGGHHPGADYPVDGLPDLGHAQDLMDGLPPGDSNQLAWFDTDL

Chain of HA-tagged LEF-1 (P27782 whole entry): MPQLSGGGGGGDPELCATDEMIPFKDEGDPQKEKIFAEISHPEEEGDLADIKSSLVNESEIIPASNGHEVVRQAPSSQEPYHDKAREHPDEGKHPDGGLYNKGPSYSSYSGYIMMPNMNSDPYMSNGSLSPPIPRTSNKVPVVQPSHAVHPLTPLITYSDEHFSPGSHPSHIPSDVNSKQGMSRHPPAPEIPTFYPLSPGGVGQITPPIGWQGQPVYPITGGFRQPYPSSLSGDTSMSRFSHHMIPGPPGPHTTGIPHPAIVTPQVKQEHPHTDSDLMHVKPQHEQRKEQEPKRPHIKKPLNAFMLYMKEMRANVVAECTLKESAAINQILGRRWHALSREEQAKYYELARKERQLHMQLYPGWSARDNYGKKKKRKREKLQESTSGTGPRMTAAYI

luciferase activity (TOPFLASH reporter) in CHO cells (HA-tagged LEF-1): ~5 fold
B1: Mouse β-catenin (transfected cDNA) (other, UniProt Q02248 2-781, looked up)
chain: T1 sequence (looked up) with P705A

binding result [1]: binds
B2: HA-tagged chicken α-catenin (other)
chain: TAVTAGNVNFRWDPKSLEIRTLAVERLLEPLVTQVTTLVNTSNKGPSNKKRGRSKKAHVLAASVEQATENFLDKGDKIAKESQFLKEELVAAVEDVRKQGDLMKSASGEFADDPCSSVKRGNMVRAARALLSAVTRLLILADMADVYKLLVQLKVVEEGILKLRNAGTEQDLGIQYKALKPEVDKLNIMAAKRQQELKDVGHRDQMAAARGILQKNVPILYTASQACLQHFDVAAYKANRDLIYKQLQQAVTGISNAAQATASDDAAQQQGGGGELAYALNNFDKQIIVDPSTFSEQRFRPSLEERLESIISGAALMADSSCTRDDRRERIVAECNAVRQALQDLLSEYMGNAGRKERSDALNSAIDKMTKKTRDLRRQLRKAVMDHVSDSFLETNVPLLVLIEAARNGNEKEVKEYTQVFREHANKLIEVANLACSISNNEEGVKLVRMSASQLEALCPQVINAALALAAKPQSKLAQENMELFKEQWEKQVRVLTDAVDDITSIDDFLAVSENHILEDVNKCVIALQEKDVDGLDRTAGAIRGRAARVIHVVTSEMDNYEPGVYTEKVLEATKLLSNTVMPRFTEQVEAAVEALSSDPAQPMDENEFIDRSRLVYDGIRDIRKAVLMIRTPEELDDSDFETEDFDVRSKTSIQTEDDQLIAGQSARAIMAQLPQEQKAKIAEAVASFQEEKSKLDAEVSKWDDSGNDIIVLAKQMCMIMMEMTDFTRGKGPLKNTSDVISAAKKIAEAGSRMDKLGRTIADHCPDSASKQDLLAYLQRIALYCHQLNICSKVKAEVQNLGGELVVSGVDSAMSLIQAAKNLMNAVVQTVKASYVASTKYQKSQGMASLNLPAVSWKMKAPEKKPLVKREKQDETQTKIKRASQKKHVNPVQALSEFKAMESI
notes: also called HA α-catenin; not shown: 16-amino acids hemaglutinin (HA)-tag of the pCGN vector at the NH2-terminus
